This data set in a line: yeast display, Sf9 membrane polyspecificity reagent, FACS + sequencing; frameworks hold sequencing errors. A digest of the protocol:
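In a synthetic yeast display library (Saccharomyces cerevisiae BJ5465), nanobody expression was induced with galactose for 36–48 hours. FACS gates were set low and high (top ~1%) using anti-HA fluorescence for expression and streptavidin fluorescence for binding of the Sf9 membrane reagent. Each polyreactivity label is drawn from the gate of origin.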
On to “QVQLVESGGGLVQAGGSLRLSCAASGLIFYEHAMGWYRQAPGKERELVAAINYDGDSTYYADSVKGRFTISRDNAKITVYLQMNSLKPEDTAVYYCAADGGWVLFWMDYCGQGTQVTVSS”, for which the “polyreactivity (PSR sort gate)” value is given as “low polyreactivity”.
Regarding “QVQLVESGGGLVQAGGSLRLSCAASGSIFGDYAMGWYRQAPGKERELVAAISRADGTYYADSVKGRFTISRDNAKNTVYLQMNSLKPEDTAVYYCATDYGIRSYYYSWYYVFTADDYWGQGTQVTVSS”, the “polyreactivity (PSR sort gate)” value is on record as “low polyreactivity”.
In the case of “QVQLVESGGGLVQAGGSLRLSCAASGRTFASNAMGWYRQAPGKERELVAAISYSGGRTYYADSVKGRFTISRDNAKNTVYLQMNSLKPEDTAVYYCAKVGPVYKYDYWGLGTQVTVSS”, the “polyreactivity (PSR sort gate)” value was “high polyreactivity”.
In the case of “QVQLVESGGGLVQAGGSLRLSCAASRRIIGAYAMGWDRQAPGKEWELVARISWSGGTTYYADSVKGRFPISRDNAKNTVYLQMNSLKPEDTAVYYCAARYSYYVTGGISKYDYWGQGTQVTVSS” it was “low polyreactivity”; in that of “QVQLVESGGGLVQAGGSLRLSCDASGRTFRFNDGGWYRQAPVKERELVAAITYRGGSTYYPDSVKGRFTISRDNAKNTVYLQMNSLKPDDTAVYYCAADYFWSRTQEFDYWGQGSQVTVSS”, “high polyreactivity”.
In the case of “QVQLVESGGGLVQAGGSLRLSCAASGFIFYHYVLGWYRQAPGKERELVAAITRGGSTYADSVKGRFTISRDNAKNTVYLQMNSLKPEDTAVYYCNADYPFSYFTRLMDYWGQGTQVTVSS” it was “low polyreactivity”; in that of “QVQLVESGGRLVQAGGSLRLRCAASGRTFYWNGMGWYRQSPGKERELVAAITVSVGSTYFADSVKGRFTISRDNAKNTVSLQMNSLKPEDTAVYYCNADAYYEARIWSYRKGDYWGQGTQVTVSS”, “low polyreactivity”; in that of “QVQLVESGGGLVQAGGSLRLSCAASGRTFPPYGMGWNRQAPGKERELVADISKSSGSTNYADSVKARFTISRDKAKNTVYLQMNSVKPEDTAVYYCNVDLYRWSKLAGAYRMDYSGQGTQVTVSS”, “low polyreactivity”.
The same measure for “QVQLVESGGGLVQAGGSLRLSCAASGGTFSPYAMGWYRQAPGKERELVAVIRSDVTTNYADSVKGRFTISRDNAKNTVYLQMNSLKPEDTAVYYCAVQYLGYGGLFPLDYWGQGTQVTVSS”: “low polyreactivity”; for “QFQLVESGGGLVQAGGSLRLSCAASGITFVDNAMGWYRQAPGKERELVAAITNSGSTYADSVKGRFTISRDNAKNTVYVQMNSLKPEDTAVYYCAADYYILLTKSDRLFGSWGQGTQVTVSS”: “low polyreactivity”.
As for “QVQLVESGGGLVQAGGSLRLSCAASGFIFVRYAMGWYRQAPGKERELVAAISWRGGSTYYADSVKGRFTISRDNAKNTVYLQMNSLKPEDTAVYYCAAVTWVHRYSRFHPFVAFDYWGQGTQVTVSS”, the “polyreactivity (PSR sort gate)” value is “high polyreactivity”.
Turning to “QVQLVESGGGLVQAGGSLRLSCAASGSIFYPYAMGWYRPAPGKERELVASITINDGSTYYADSVKGRFTISRDNAKNTVYLQMNSLKPEDTAVYYCNVEPVPGFGSEYEYWGQGTQVTVSS”, the “polyreactivity (PSR sort gate)” value is on record as “low polyreactivity”.
For “QVQLVESGGGLVQAGGSLRLSCAASGSTFRRNAMGWYRQAPGKERELVAAISRGGNTKYADSVKGGFTISRDNAKNTVYLQKNSLKPEDTAVYYCATYYFSSSHLYGYWGQGTQVTVSS”, the “polyreactivity (PSR sort gate)” value is on record as “high polyreactivity”.
With “QVQLVESGAGLVQAGGSLRLSCADSGSIFYYYAMGWYRQAPGKEREFGAAIRESVGSTYYADSVKGSFTISRDNAKNTVYLQMNSRKPEDTAVYYCAVRRPRRNYNYPYDYWGQGTQVTVSS”, the “polyreactivity (PSR sort gate)” value is “low polyreactivity”.
The same measure for “QVQLVESGGGLVQAGGSLRLSCAASGSTFDWYAMGWYRQAPGKEREFVAAIDQDEDSTYYADSVKGRFTISRDNAKNTVYLQMNSLKPEVTAVYYCAADHAWYSLFDYWGQGTQVTVSS”: “low polyreactivity”.
The same measure for “QVQLVESGGGLVQAGGSLRLSCAASGRTFSSNAMGWYRHAPGKERELVAAISFRGGRTFYADSVKGRFTISRDNAKNTGFLQMNSLKPEDSAVYYCNAVPETRSYDYWGQGTQVTVSS”: “high polyreactivity”.
As to “QVQLVESGGGLVQAGGSLRLSCAASGRIFSDNAMGWYRQAPGKERELVATINYSGGSTYYADSVKGRFTISRDNAKNTVYLQMNSLKPEDTAVYYCATRIPHRINYYDYDYWGQGTQVTVSS”, the “polyreactivity (PSR sort gate)” value is on record as “low polyreactivity”.
In the case of “QVQLVESGGGLVQAGGSLRLSCAASGIIFRLYAMGWYRQAPGKERELVAAISYRGGSTYYADSVKGRFTISRDNAKNTVYLQMNSLKPEDTAVYYCAGRNPRYSFYYWGQGTQVTVSS”, the “polyreactivity (PSR sort gate)” value is on record as “high polyreactivity”.
“QVQRVESGGGLVQARASLRLSCAASGSIFPHYAMGWYRQAPGKERDLVATIRSRSGSTYYADSVKGRFTISRDNAKNTVYLQMNSLKPEDTAVYYCAARYYKERYWGQGTQVTVSS”: the “polyreactivity (PSR sort gate)” value is on record as “low polyreactivity”.
“QVQLEESCGGLVQAGGSLRLSCAASGPIIRAYAMGWYRQAPGKERELVAAITRSGGSTYYADSVKGRFTISLDNAKNTVYLQMNSLKPEDTAVYYCNARTRYDDGYDSWGQGTQVTVSS”: the “polyreactivity (PSR sort gate)” value is recorded as “high polyreactivity”.
In the case of “QVQLVESGGGLVQAGGSLRLSCAASGSIFYYYAMGWYRQAPGKEREFVAAIRESGGSTYYADSVKGRFTISRDNAKNTVYLQMNSLKPEDTAVYYCAVRRPRRNYNYPYDYCGQGTQVTVSS” it was “low polyreactivity”; in that of “QVQLVESGGGLVQAGVSLRLSCAAYGRIFGPYAMGWYRQAPGKERELVATITWRTGSTYYADSVKGRFTISRDNAKNTVYLQMNSLKPEDTAVYYCAARYGRYSKAGDYWGLGTQVTVSS”, “high polyreactivity”; in that of “QVQLVESGGGLVQAGGSLRLSCADSGSIFLWNTMGWYRQAPGKERELVAAINFSGTRTYYADSVKGRFTISRDNAKNTVYLQMNSLKPEDTAVYYCNARTSRRLDYDYWGQGTQVTVSS”, “high polyreactivity”.
For “QVQLLESCGGLDQAGGSLRLSCAASGSTFGTNAMGWYRKAPGKERELVAAITSSGGSTNYADSVKWRFTISLDNANNSVYFQMNCLKPEDTAVYYCNDVSYSTTYGGDSWGQGTQVTVSS”, the “polyreactivity (PSR sort gate)” value is given as “low polyreactivity”.
Turning to “QVQLVESGGGLVQAGGSLRLTSAGSGFTFTIYAMGWYRQAPGKERELVATISGRAGRTYYADSVKGRFTISRDNAKNTVYLQMNSLKPEDTAVYYCNAGQWRYPGLYYYWGQGSQVTVSS”, the “polyreactivity (PSR sort gate)” value was “high polyreactivity”.
For the sequence “QVQLVESGGGLVQAGGSLRLSCAASGSIFAWYAMGWYRQAPGKERELVAVITRGGSTNYADSVKGRFTISRDNAKNTVYLQMNSLKPEDTAVYYCAAGSYYSWYPFDYWGQGTQVTVSS”, the “polyreactivity (PSR sort gate)” value is “low polyreactivity”.
Consider “QVQLVESGGGLVQAGGSLRLSCAASGSIFKFYAMGWYRQAPGKERELVAAISSSGTSTYYADSVKGRFTISRDNAKNTVYLQMNSLKPEDTAVYYCAARGGVQNEVKGSPYYYWGQGTQVTVSS”, for which the “polyreactivity (PSR sort gate)” value is listed as “high polyreactivity”.
As for “QVQLVESGGGLVQAGGSLRLSCAASGIIFTGYAMGWYRQAPGKERELVAAISESGGSTYYADSVKGRFTISRDNAKNTVYLQMNSLKPEDTAVDYCAVDALSITYGYWGQGTQVTVSS”, the “polyreactivity (PSR sort gate)” value was “low polyreactivity”.
Take “QVQLVESGGGLVQAGGSLRLSCAASGRTFVYNTMGWYRQAPGKERELVASISSTGGNTYYSDSVKGRFTISRDNAKNTVYLQMNSLKPEDTAVYYCAAGAWTRGQYYYWGQRTQVTVSS”: the “polyreactivity (PSR sort gate)” value was “high polyreactivity”.
The same measure for “QVQLVESGGGLVQAGGSLRLSCAASGIIFEYYTIGWYRQATGKERELVASITYDGDSTYYADSVKGRFTISRDNAKNTVYLQMNSLKPEDTAVYYCAADYYSVYSSFGHYYWGQGTQVTVSS”: “low polyreactivity”.
The same measure for “QVQLVDSGGGLVQAGGSLRLSCAAYGRIFGIYTMGWYRQAPGKERELVAAIRFSGSRTYYADSVKGRFTISRDNAKNTVYLQMNSLKPEDTAVYYCNADWWFYRLRNEYWGQGTQVTVSS”: “high polyreactivity”.
“QVQLVESGGGLVQAGGSLRLSCAASGRIFRYYAMGWYRQAPGKERELVAAISSGGSTNYADSVKGRFTISRDNAKNTVYIQMNSLKPEDTPVYYCAAEWYSYGARSSYGGSRNDYWGQGTQVTVSS”: the “polyreactivity (PSR sort gate)” value was “low polyreactivity”.
The same measure for “QVRLVESGGGLVQAGGSLRLSCAASGSTFNNYDMGWYRQAPGKERELVAAYADSVKGRFTISRDNAKNTVYLQMNRLKPEDTADYYCAAVREKTLYYLSRFDYWGQGTQVTVSS”: “low polyreactivity”; for “QVQLVDSGGRLFQAGGSLRLSCAAYGFSFSYYDMGSYRQAPGKERELVAAIFSNGRTYYADSVKGRFTISRDNAKNTVYLQMNSLKPVDTAVYYCAAAYVGYYYSRGFDYWGQGTQVTVSS”: “high polyreactivity”.
Consider “QVQLVESGGGLVQAGGSLRLSCAASGRIFFHYAMGWYRQPPGKERELVAVISSSGGITYYADSVKGRFTISRDNAKNTVYLQMNSLKPEDTAVYYCNTVPRPFDRYGYWGQGTQVTVSS”, for which the “polyreactivity (PSR sort gate)” value is recorded as “low polyreactivity”.
In the case of “QVQLVESGGGLVQAGGSLRLICAASGFTFEYYAMGWYRQAPGKERELVAAISGSGVSTYYADSVKGRFTISRDNAKNTVYLQMNSLNPEDTAVYYCAALGDKYGSNRLDHYWYIWYDSWGQGTQVTVSS” it was “low polyreactivity”; in that of “QVQLVESGGGLVQAGGSLRLSCAASGFIFGINAMGWYRQAPGKERELVATITSGGGTNYADSVKGRFTISRDNAKNTVYLQMNSLKPEDTAVYYCAKAPDTQTSWSRQEGNYWGQGTQVTVSS”, “low polyreactivity”.
The same measure for “QVQIVESGGGLVQAGGSLRLSCAASGRIFRNTMGWYIQAPGKERDLVAAITDTTDSTYYADSVKGRFTISRDNAKNTVYLQMNSLKPEDSAVYYCAARYGGYVNRPYYYWGHGTQVTVSS”: “low polyreactivity”.
Consider “QFQLVESGGGLVQAGGSLRLSCAASARTFYRYAMGWYRQAPGKERELVASINRGGSTIYADSVKGRFSISRDNAKNTVYLHMNSLKPEDTAVFYCACYCYCYWGQGTQVTVSS”, for which the “polyreactivity (PSR sort gate)” value was “low polyreactivity”.
Regarding “QVQLVESGGGLVHAGGSLRLSCAAYGSTFVRNAMGCYRQAPGKERELVAAITSRGGSTYYADSVKGRFTISRDNAKNTVYLQMNSLKPEDTAVYYCAARFGVKRGQYDYWGQGTQVTVSS”, the “polyreactivity (PSR sort gate)” value is “high polyreactivity”.
For the sequence “QVQLVESGGGLVQAGGSLRLSCAASGRIFLSYTMGSYRQAPGKERELVAAISRGGRTYYADSVKGRFTISLDNAKNTVYLQMNSLKPEDTAVYYCAKKYGRYGSLRGRTIDDYWGQGTEVTVSS”, the “polyreactivity (PSR sort gate)” value is “low polyreactivity”.

For the origin of these results see the nanobody polyreactivity screen of Harvey et al. (2022).
